From US20200095340A1

What follows are binders tested against biotinylated human DLL3 protein expressed as a human IgG1 fusion protein (human) (UniProt Q9NYJ7) (assay: Octet BLI; biotinylated huDLL3-IgG1 fusion on streptavidin tips; single 50 nM; conditioned medium).
Chain of biotinylated human DLL3 protein expressed as a human IgG1 fusion protein (human) (Q9NYJ7 other isoform, or with tags, fused parts or gaps): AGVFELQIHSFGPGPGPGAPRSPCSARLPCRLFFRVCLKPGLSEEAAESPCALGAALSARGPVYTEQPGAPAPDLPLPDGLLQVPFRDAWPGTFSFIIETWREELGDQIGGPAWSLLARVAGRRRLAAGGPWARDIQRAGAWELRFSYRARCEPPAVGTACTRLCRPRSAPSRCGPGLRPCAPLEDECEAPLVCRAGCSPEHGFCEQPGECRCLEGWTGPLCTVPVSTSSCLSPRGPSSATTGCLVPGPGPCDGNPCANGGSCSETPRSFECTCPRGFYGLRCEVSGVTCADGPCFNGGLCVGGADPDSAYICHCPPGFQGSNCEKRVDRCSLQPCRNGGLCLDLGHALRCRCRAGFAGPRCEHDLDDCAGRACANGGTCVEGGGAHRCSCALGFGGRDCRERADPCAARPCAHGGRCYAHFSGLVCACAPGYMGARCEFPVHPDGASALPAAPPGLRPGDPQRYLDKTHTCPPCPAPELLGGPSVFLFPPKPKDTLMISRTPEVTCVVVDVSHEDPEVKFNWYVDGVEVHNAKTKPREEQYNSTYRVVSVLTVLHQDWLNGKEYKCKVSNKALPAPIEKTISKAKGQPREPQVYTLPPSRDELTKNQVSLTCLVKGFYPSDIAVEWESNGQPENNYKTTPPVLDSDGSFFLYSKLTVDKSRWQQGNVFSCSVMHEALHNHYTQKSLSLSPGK

Row | Kd | Binder
1 | 6.4 nM | anti-DLL3 trispecific protein 2C09 (protein, part only; not given: anti-CD3 and anti-albumin domains, part only) chain, part: EVQLVESGGGLVQPGGSLTLSCVPSGSTSNINAMGWYRRAPGKQRELPAGISSDGTKIYADSAKVPFTITRDNAKNSVYLQMNSLRAEDTAVYYCYYFRTVSGTSMRYWGQGTLVTVSSGGGGSGGGSGGGGSGGGSHHHHHH
2 | 5.8 nM | anti-DLL3 trispecific protein 1D03 (protein, part only; not given: CD3 binder and albumin binder, part only) chain, part: EVQLVESGGGLVQPGGSLTLSCVASGSTSSINAIGWYRRAPGKQRELVAGISSDGSKVLADSVKGRFTISRDNAKNSVYLQMNSLRAEDTAVYYCYYFRIVSGSSMGYWGQGTLVTVSSGGGGSGGGSGGGGSGGGSHHHHHH
3 | 6.5 nM | anti-DLL3 trispecific protein 1A010 (protein, part only; not given: anti-CD3 fragment and anti-albumin domain, part only) chain, part: EVQLVESGGGLVQPGGSLTLSCVASGSTSSINAYGWYRRAPGKQRELVAGISSDGSKVYADSVKGRFTISRDNAKNSVYLQMNSLRAEDTAVYYCYYFRTVYGSSMRYWGQGTLVTVSSGGGGSGGGSGGGGSGGGSHHHHHH
4 | 5.8 nM | anti-DLL3 trispecific protein 1F012 (protein, part only; not given: anti-CD3 fragment and anti-albumin sdAb, part only) chain, part: EVQLVESGGGLVQPGGSLTLSCVASGLTSSINAMGWYRRAPGKQRELVAGISSDGSKVYQDSVKGRFTISRDNAKNSVYLQMNSLRAEDTAVYYCYYFRTNSGSSMRYWGQGTLVTVSSGGGGSGGGSGGGGSGGGSHHHHHH
5 | 6.1 nM | anti-DLL3 trispecific protein 1C03 (protein, part only; not given: anti-CD3 and anti-albumin domains, part only) chain, part: EVQLVESGGGLVQPGGSLTLSCVASGSTSSINAMAWYRRAPGKQRELVAGISSDNSKVYADSVKGRFTISRDNAKNSVYLQMNSLRAEDTAVYYCYYFRTVGGSSMRYWGQGTLVTVSSGGGGSGGGSGGGGSGGGSHHHHHH
6 | 6.1 nM | anti-DLL3 trispecific protein 2H07 (protein, part only; not given: anti-CD3 fragment and anti-albumin sdAb, part only) chain, part: EVQLVESGGGLVQPGGSLTLSCVASGSTSSINAVGWYRRAPGKQRELVAGISSDGSTVYADSVKGRFTISRDNAKNSVYLQMNSLRAEDTAVYYCYYFRTVSGHSMRYWGQGTLVTVSSGGGGSGGGSGGGGSGGGSHHHHHH
7 | 6.2 nM | anti-DLL3 trispecific protein 2C07 (protein, part only; not given: anti-CD3 and anti-albumin domains, part only) chain, part: EVQLVESGGGLVQPGGSLTLSCVASGSTSSINAMAWYRRAPGKQRELVAGISSDGSKVYADSVKGRFTISRDNAKNSVYLQMNSLRAEDTAVYYCYYFRSVSGSSMRYWGQGTLVTVSSGGGGSGGGSGGGGSGGGSHHHHHH
8 | 6.6 nM | anti-DLL3 trispecific protein 2B02 (protein, part only; not given: CD3 binder and albumin binder, part only) chain, part: EVQLVESGGGLVQPGGSLTLSCVASGSTSSINAMAWYRRAPGKQRELVAGISSDGSKVYADSVKGRFTISRDNAKNSVYLQMNSLRAEDTAVYYCYYFRTKSGSSMRYWGQGTLVTVSSGGGGSGGGSGGGGSGGGSHHHHHH
9 | 5.9 nM | anti-DLL3 trispecific protein 2F03 (protein, part only; not given: anti-CD3 fragment and anti-albumin sdAb, part only) chain, part: EVQLVESGGGLVQPGGSLTLSCVASGSTSSINAMAWYRRAPGKQRELAAGISSDNSKVYADSVKGRFTISRDNAKNSVYLQMNSLRAEDTAVYYCYYFRTVGGSSMRYWGQGTLVTVSSGGGGSGGGSGGGGSGGGSHHHHHH
10 | 6.4 nM | anti-DLL3 trispecific protein 2H010 (protein, part only; not given: CD3 fragment and albumin sdAb, part only) chain, part: EVQLVESGGGLVQPGGSLTLSCVASGSTSSINAMGWYRRAPGKQRELAAGISSDGSKLYADSVKGRFTISRDNAKNSVYLQMNSLRAEDTAVYYCYYFRTVSGSSMRYWGQGTLVTVSSGGGGSGGGSGGGGSGGGSHHHHHH
11 | 6.1 nM | anti-DLL3 trispecific protein 2C08 (protein, part only; not given: anti-CD3 and anti-albumin domains, part only) chain, part: EVQLVESGGGLVQPGGSLTLSCVASGSTSRINAMGWYRRAPGKQRELVAGISSDGSKVYQDSVKGRFTISRDNAKNSVYLQMNSLRAEDTAVYYCYYFRRVSGSSMRYWGQGTLVTVSSGGGGSGGGSGGGGSGGGSHHHHHH
12 | 6.5 nM | anti-DLL3 trispecific protein 2F09 (protein, part only; not given: anti-CD3 fragment and anti-albumin domain, part only) chain, part: EVQLVESGGGLVQPGGSLTLSCVASGSTSSINAMAWYRRAPGKQRELVAGISSDGSKLYADSVKGRFTISRDNAKNSVYLQMNSLRAEDTAVYYCYYFRTVSGSSMRYWGQGTLVTVSSGGGGSGGGSGGGGSGGGSHHHHHH
13 | 6.3 nM | anti-DLL3 trispecific protein 1A03 (protein, part only; not given: CD3 fragment and albumin sdAb, part only) chain, part: EVQLVESGGGLVQPGGSLTLSCVASGSTSSINAMAWYRRAPGKQRELVAGISSDGSKVYADSVKGRFTISRDNAKNSVYLQMNSLRAEDTAVYYCYYFRTVSGSSSRYWGQGTLVTVSSGGGGSGGGSGGGGSGGGSHHHHHH
14 | 6.5 nM | anti-DLL3 trispecific protein 2G07 (protein, part only; not given: anti-CD3 and anti-albumin domains, part only) chain, part: EVQLVESGGGLVQPGGSLTLSCVASGSTSSINAMAWYRRAPGKQRELVAGISSDGSKVYADSVKGRFTISRDNAKNSVYLQMNSLRAEDTAVYYCYYFRTVQGSSMRYWGQGTLVTVSSGGGGSGGGSGGGGSGGGSHHHHHH
15 | 6 nM | anti-DLL3 trispecific protein 2E02 (protein, part only; not given: anti-CD3 fragment and anti-albumin sdAb, part only) chain, part: EVQLVESGGGLVQPGGSLTLSCVASGSTSAINAMGWYRRAPGKQRELVAGISSDGSKVYVDSVKGRFTISRDNAKNSVYLQMNSLRAEDTAVYYCYYFRTVSGSSQRYWGQGTLVTVSSGGGGSGGGSGGGGSGGGSHHHHHH
16 | 6.3 nM | anti-DLL3 trispecific protein 2H04 (protein, part only; not given: anti-CD3 fragment and anti-albumin domain, part only) chain, part: EVQLVESGGGLVQPGGSLTLSCVASGSTSSINAMGWYRRAPGKQRELVAGISSDTSKVYADSVKGRFTISRDNAKNSVYLQMNSLRAEDTAVYYCYYFRTVSGSYMRYWGQGTLVTVSSGGGGSGGGSGGGGSGGGSHHHHHH

Row | Kd | Binder
17 | 6 nM | anti-DLL3 trispecific protein 2D07 (protein, part only; not given: anti-CD3 fragment and anti-albumin sdAb, part only) chain, part: EVQLVESGGGLVQPGGSLTLSCVASGSTSSINAVGWYRRAPGKQRELVAGISSDGTKVYRDSVKGRFTISRDNAKNSVYLQMNSLRAEDTAVYYCYYFRTVQGSSMRYWGQGTLVTVSSGGGGSGGGSGGGGSGGGSHHHHHH
18 | 6.2 nM | anti-DLL3 trispecific protein 1H07 (protein, part only; not given: anti-CD3 fragment and anti-albumin sdAb, part only) chain, part: EVQLVESGGGLVQPGGSLTLSCVASGSTSSINAFGWYRRAPGKQRELVAGISSDGSKVYSDSVKGRFTISRDNAKNSVYLQMNSLRAEDTAVYYCYYFRTVSGSSMRYWGQGTLVTVSSGGGGSGGGSGGGGSGGGSHHHHHH
19 | 6.3 nM | anti-DLL3 trispecific protein 1F010 (protein, part only; not given: anti-CD3 fragment and anti-albumin sdAb, part only) chain, part: EVQLVESGGGLVQPGGSLTLSCVASGSTSRINAMGWYRRAPGKQRELVAGISSDGSKVYKDSVKGRFTISRDNAKNSVYLQMNSLRAEDTAVYYCYYFRTVSGSSMRYWGQGTLVTVSSGGGGSGGGSGGGGSGGGSHHHHHH
20 | 6.2 nM | anti-DLL3 trispecific protein 2D04 (protein, part only; not given: CD3 binder and albumin binder, part only) chain, part: EVQLVESGGGLVQPGGSLTLSCVASGSTSSINAVGWYRRAPGKQRELVAGISSDGSKVYRDSVKGRFTISRDNAKNSVYLQMNSLRAEDTAVYYCYYFRTVQGSSMRYWGQGTLVTVSSGGGGSGGGSGGGGSGGGSHHHHHH
21 | 6.2 nM | anti-DLL3 trispecific protein 1C02 (protein, part only; not given: anti-CD3 fragment and anti-albumin sdAb, part only) chain, part: EVQLVESGGGLVQPGGSLTLSCVASGSTSSINAMAWYRRAPGKQRELVAGISSDGSKVYSDSVKGRFTISRDNAKNSVYLQMNSLRAEDTAVYYCYYFRTVSGSSMRSWGQGTLVTVSSGGGGSGGGSGGGGSGGGSHHHHHH
22 | 6.2 nM | anti-DLL3 trispecific protein 1H011 (protein, part only; not given: anti-CD3 and anti-albumin domains, part only) chain, part: EVQLVESGGGLVQPGGSLTLSCVASGSTSSINAIGWYRRAPGKQRELVAGISSDGSKVYNDSVKGRFTISRDNAKNSVYLQMNSLRAEDTAVYYCYYFRTQSGSSMRYWGQGTLVTVSSGGGGSGGGSGGGGSGGGSHHHHHH
23 | 5.8 nM | anti-DLL3 trispecific protein 4D011 (protein, part only; not given: anti-CD3 fragment and anti-albumin sdAb, part only) chain, part: EVQLVESGGGLVQPGGSLTLSCAASGSSVRFLSMAWYRQAPGKKRELVAGISVDGSTDYIDSVKGRFTISRDNAKNSVYLQMNSLRAEDTAVYYCYAYRWRTRYTYWGQGTLVTVSSGGGGSGGGSGGGGSGGGSHHHHHH
24 | 5.9 nM | anti-DLL3 trispecific protein 3C08 (protein, part only; not given: anti-CD3 fragment and anti-albumin sdAb, part only) chain, part: EVQLVESGGGLVQPGGSLTLSCAASGSSVKFLSMAWYRQAPGKKRELVAGISLDGSTDYIDSVKGRFTISRDNAKNSVYLQMNSLRAEDTAVYYCYAYRWTGRYTYWGQGTLVTVSSGGGGSGGGSGGGGSGGGSHHHHHH
25 | 6.3 nM | anti-DLL3 trispecific protein 3A09 (protein, part only; not given: CD3 binder and albumin binder, part only) chain, part: EVQLVESGGGLVQPGGSLTLSCAASGSSVSFLSMAWYRQAPGKKRELVAGISADGSVDYIDSVKGRFTISRDNAKNSVYLQMNSLRAEDTAVYYCYAYRWTTRYIYWGQGTLVTVSSGGGGSGGGSGGGGSGGGSHHHHHH
26 | 6.5 nM | anti-DLL3 trispecific protein 4D05 (protein, part only; not given: anti-CD3 fragment and anti-albumin domain, part only) chain, part: EVQLVESGGGLVQPGGSLTLSCAASGSSSSFLSMAWYRQAPGKKRELVAGISADGSTVYIDSVKGRFTISRDNAKNSVYLQMNSLRAEDTAVYYCYAYRWTTRRTYWGQGTLVTVSSGGGGSGGGSGGGGSGGGSHHHHHH
27 | 5.9 nM | anti-DLL3 trispecific protein 3D07 (protein, part only; not given: anti-CD3 and anti-albumin domains, part only) chain, part: EVQLVESGGGLVQPGGSLTLSCAASGSSVRFLSMAWYRQAPGKKRELVAGISADGSTDYIDSVKGRFTISRDNAKNSVYLQMNSLRAEDTAVYYCYAYSWTTRYTYWGQGTLVTVSSGGGGSGGGSGGGGSGGGSHHHHHH
28 | 6.6 nM | anti-DLL3 trispecific protein 4C03 (protein, part only; not given: CD3 fragment and albumin sdAb, part only) chain, part: EVQLVESGGGLVQPGGSLTLSCAASGSKVSFMSMAWYRQAPGKKRELVAGISVDGSTDYIDSVKGRFTISRDNAKNSVYLQMNSLRAEDTAVYYCYAYRWRTRYTYWGQGTLVTVSSGGGGSGGGSGGGGSGGGSHHHHHH
29 | 5.9 nM | anti-DLL3 trispecific protein 4D08 (protein, part only; not given: anti-CD3 and anti-albumin domains, part only) chain, part: EVQLVESGGGLVQPGGSLTLSCAASGSSVNFLSMAWYRQAPGKKRELVAGISADGSTHYIDSVKGRFTISRDNAKNSVYLQMNSLRAEDTAVYYCYAYRWLTRYTYWGQGTLVTVSSGGGGSGGGSGGGGSGGGSHHHHHH
30 | 6.1 nM | anti-DLL3 trispecific protein 4H04 (protein, part only; not given: anti-CD3 fragment and anti-albumin sdAb, part only) chain, part: EVQLVESGGGLVQPGGSLTLSCAASGSSVKFLSMAWYRQAPGKKRELVAGVSADGSTDYIDSVKGRFTISRDNAKNSVYLQMNSLRAEDTAVYYCYAYEWTTRYTYWGQGTLVTVSSGGGGSGGGSGGGGSGGGSHHHHHH
31 | 6 nM | anti-DLL3 trispecific protein 4C011 (protein, part only; not given: anti-CD3 and anti-albumin domains, part only) chain, part: EVQLVESGGGLVQPGGSLTLSCAASGSRVSFLSMAWYRQAPGKKRELVAGISADGSTVYIDSVKGRFTISRDNAKNSVYLQMNSLRAEDTAVYYCYAYRWTRRYTYWGQGTLVTVSSGGGGSGGGSGGGGSGGGSHHHHHH
